Reference: patent US20190177366A1 (published 2019)
Bridge positions count the residues as written; N and C are the ends. Square brackets hold non-standard residues; d marks the D form.

B1: Compound 99 (peptide)
peptide: Ac-CRLPWNLQRIGL[dP]C-NH2
modifications: disulfide 1-14
SMILES: CC[C@H](C)[C@@H]1NC(=O)[C@H](CCCNC(=N)N)NC(=O)[C@H](CCC(N)=O)NC(=O)[C@H](CC(C)C)NC(=O)[C@H](CC(N)=O)NC(=O)[C@H](Cc2c[nH]c3ccccc23)NC(=O)[C@@H]2CCCN2C(=O)[C@H](CC(C)C)NC(=O)[C@H](CCCNC(=N)N)NC(=O)[C@@H](NC(C)=O)CSSC[C@@H](C(N)=O)NC(=O)[C@H]2CCCN2C(=O)[C@H](CC(C)C)NC(=O)CNC1=O
B2: Compound 101 (peptide)
peptide: Ac-CRLPWNLQR[dI]GLPC-NH2
modifications: disulfide 1-14
SMILES: CC[C@@H](C)[C@H]1NC(=O)[C@H](CCCNC(=N)N)NC(=O)[C@H](CCC(N)=O)NC(=O)[C@H](CC(C)C)NC(=O)[C@H](CC(N)=O)NC(=O)[C@H](Cc2c[nH]c3ccccc23)NC(=O)[C@@H]2CCCN2C(=O)[C@H](CC(C)C)NC(=O)[C@H](CCCNC(=N)N)NC(=O)[C@@H](NC(C)=O)CSSC[C@@H](C(N)=O)NC(=O)[C@@H]2CCCN2C(=O)[C@H](CC(C)C)NC(=O)CNC1=O
B3: Compound 69 (peptide)
peptide: Ac-CRLPWNLQRIGAPC-NH2
modifications: disulfide 1-14
SMILES: CC[C@H](C)[C@@H]1NC(=O)[C@H](CCCNC(=N)N)NC(=O)[C@H](CCC(N)=O)NC(=O)[C@H](CC(C)C)NC(=O)[C@H](CC(N)=O)NC(=O)[C@H](Cc2c[nH]c3ccccc23)NC(=O)[C@@H]2CCCN2C(=O)[C@H](CC(C)C)NC(=O)[C@H](CCCNC(=N)N)NC(=O)[C@@H](NC(C)=O)CSSC[C@@H](C(N)=O)NC(=O)[C@@H]2CCCN2C(=O)[C@H](C)NC(=O)CNC1=O
B4: Compound 77 (peptide)
peptide: Ac-CRLAWNLQRIGLPC-NH2
modifications: disulfide 1-14
SMILES: CC[C@H](C)[C@@H]1NC(=O)[C@H](CCCNC(=N)N)NC(=O)[C@H](CCC(N)=O)NC(=O)[C@H](CC(C)C)NC(=O)[C@H](CC(N)=O)NC(=O)[C@H](Cc2c[nH]c3ccccc23)NC(=O)[C@H](C)NC(=O)[C@H](CC(C)C)NC(=O)[C@H](CCCNC(=N)N)NC(=O)[C@@H](NC(C)=O)CSSC[C@@H](C(N)=O)NC(=O)[C@@H]2CCCN2C(=O)[C@H](CC(C)C)NC(=O)CNC1=O
B5: Compound 70 (peptide)
peptide: Ac-CRLPWNLQRIALPC-NH2
modifications: disulfide 1-14
SMILES: CC[C@H](C)[C@@H]1NC(=O)[C@H](CCCNC(=N)N)NC(=O)[C@H](CCC(N)=O)NC(=O)[C@H](CC(C)C)NC(=O)[C@H](CC(N)=O)NC(=O)[C@H](Cc2c[nH]c3ccccc23)NC(=O)[C@@H]2CCCN2C(=O)[C@H](CC(C)C)NC(=O)[C@H](CCCNC(=N)N)NC(=O)[C@@H](NC(C)=O)CSSC[C@@H](C(N)=O)NC(=O)[C@@H]2CCCN2C(=O)[C@H](CC(C)C)NC(=O)[C@H](C)NC1=O
B6: Compound 75 (peptide)
peptide: Ac-CRLPWALQRIGLPC-NH2
modifications: disulfide 1-14
SMILES: CC[C@H](C)[C@@H]1NC(=O)[C@H](CCCNC(=N)N)NC(=O)[C@H](CCC(N)=O)NC(=O)[C@H](CC(C)C)NC(=O)[C@H](C)NC(=O)[C@H](Cc2c[nH]c3ccccc23)NC(=O)[C@@H]2CCCN2C(=O)[C@H](CC(C)C)NC(=O)[C@H](CCCNC(=N)N)NC(=O)[C@@H](NC(C)=O)CSSC[C@@H](C(N)=O)NC(=O)[C@@H]2CCCN2C(=O)[C@H](CC(C)C)NC(=O)CNC1=O
B7: Compound 80 (peptide)
peptide: Ac-CRLPWNLQRIGLGC-NH2
modifications: disulfide 1-14
SMILES: CC[C@H](C)[C@@H]1NC(=O)[C@H](CCCNC(=N)N)NC(=O)[C@H](CCC(N)=O)NC(=O)[C@H](CC(C)C)NC(=O)[C@H](CC(N)=O)NC(=O)[C@H](Cc2c[nH]c3ccccc23)NC(=O)[C@@H]2CCCN2C(=O)[C@H](CC(C)C)NC(=O)[C@H](CCCNC(=N)N)NC(=O)[C@@H](NC(C)=O)CSSC[C@@H](C(N)=O)NC(=O)CNC(=O)[C@H](CC(C)C)NC(=O)CNC1=O
B8: Compound 73 (peptide)
peptide: Ac-CRLPWNLARIGLPC-NH2
modifications: disulfide 1-14
SMILES: CC[C@H](C)[C@@H]1NC(=O)[C@H](CCCNC(=N)N)NC(=O)[C@H](C)NC(=O)[C@H](CC(C)C)NC(=O)[C@H](CC(N)=O)NC(=O)[C@H](Cc2c[nH]c3ccccc23)NC(=O)[C@@H]2CCCN2C(=O)[C@H](CC(C)C)NC(=O)[C@H](CCCNC(=N)N)NC(=O)[C@@H](NC(C)=O)CSSC[C@@H](C(N)=O)NC(=O)[C@@H]2CCCN2C(=O)[C@H](CC(C)C)NC(=O)CNC1=O
B9: Compound 81 (peptide)
peptide: Ac-CRLPWNLQRIGGGC-NH2
modifications: disulfide 1-14
SMILES: CC[C@H](C)[C@@H]1NC(=O)[C@H](CCCNC(=N)N)NC(=O)[C@H](CCC(N)=O)NC(=O)[C@H](CC(C)C)NC(=O)[C@H](CC(N)=O)NC(=O)[C@H](Cc2c[nH]c3ccccc23)NC(=O)[C@@H]2CCCN2C(=O)[C@H](CC(C)C)NC(=O)[C@H](CCCNC(=N)N)NC(=O)[C@@H](NC(C)=O)CSSC[C@@H](C(N)=O)NC(=O)CNC(=O)CNC(=O)CNC1=O
B10: Compound 71 (peptide)
peptide: Ac-CRLPWNLQRAGLPC-NH2
modifications: disulfide 1-14
SMILES: CC(=O)N[C@H]1CSSC[C@@H](C(N)=O)NC(=O)[C@@H]2CCCN2C(=O)[C@H](CC(C)C)NC(=O)CNC(=O)[C@H](C)NC(=O)[C@H](CCCNC(=N)N)NC(=O)[C@H](CCC(N)=O)NC(=O)[C@H](CC(C)C)NC(=O)[C@H](CC(N)=O)NC(=O)[C@H](Cc2c[nH]c3ccccc23)NC(=O)[C@@H]2CCCN2C(=O)[C@H](CC(C)C)NC(=O)[C@H](CCCNC(=N)N)NC1=O
B11: Compound 74 (peptide)
peptide: Ac-CRLPWNAQRIGLPC-NH2
modifications: disulfide 1-14
SMILES: CC[C@H](C)[C@@H]1NC(=O)[C@H](CCCNC(=N)N)NC(=O)[C@H](CCC(N)=O)NC(=O)[C@H](C)NC(=O)[C@H](CC(N)=O)NC(=O)[C@H](Cc2c[nH]c3ccccc23)NC(=O)[C@@H]2CCCN2C(=O)[C@H](CC(C)C)NC(=O)[C@H](CCCNC(=N)N)NC(=O)[C@@H](NC(C)=O)CSSC[C@@H](C(N)=O)NC(=O)[C@@H]2CCCN2C(=O)[C@H](CC(C)C)NC(=O)CNC1=O
B12: Compound 78 (peptide)
peptide: Ac-CRAPWNLQRIGLPC-NH2
modifications: disulfide 1-14
SMILES: CC[C@H](C)[C@@H]1NC(=O)[C@H](CCCNC(=N)N)NC(=O)[C@H](CCC(N)=O)NC(=O)[C@H](CC(C)C)NC(=O)[C@H](CC(N)=O)NC(=O)[C@H](Cc2c[nH]c3ccccc23)NC(=O)[C@@H]2CCCN2C(=O)[C@H](C)NC(=O)[C@H](CCCNC(=N)N)NC(=O)[C@@H](NC(C)=O)CSSC[C@@H](C(N)=O)NC(=O)[C@@H]2CCCN2C(=O)[C@H](CC(C)C)NC(=O)CNC1=O
B13: Compound 79 (peptide)
peptide: Ac-CALPWNLQRIGLPC-NH2
modifications: disulfide 1-14
SMILES: CC[C@H](C)[C@@H]1NC(=O)[C@H](CCCNC(=N)N)NC(=O)[C@H](CCC(N)=O)NC(=O)[C@H](CC(C)C)NC(=O)[C@H](CC(N)=O)NC(=O)[C@H](Cc2c[nH]c3ccccc23)NC(=O)[C@@H]2CCCN2C(=O)[C@H](CC(C)C)NC(=O)[C@H](C)NC(=O)[C@@H](NC(C)=O)CSSC[C@@H](C(N)=O)NC(=O)[C@@H]2CCCN2C(=O)[C@H](CC(C)C)NC(=O)CNC1=O
B14: Compound 76 (peptide)
peptide: Ac-CRLPANLQRIGLPC-NH2
modifications: disulfide 1-14
SMILES: CC[C@H](C)[C@@H]1NC(=O)[C@H](CCCNC(=N)N)NC(=O)[C@H](CCC(N)=O)NC(=O)[C@H](CC(C)C)NC(=O)[C@H](CC(N)=O)NC(=O)[C@H](C)NC(=O)[C@@H]2CCCN2C(=O)[C@H](CC(C)C)NC(=O)[C@H](CCCNC(=N)N)NC(=O)[C@@H](NC(C)=O)CSSC[C@@H](C(N)=O)NC(=O)[C@@H]2CCCN2C(=O)[C@H](CC(C)C)NC(=O)CNC1=O
B15: Compound 72 (peptide)
peptide: Ac-CRLPWNLQAIGLPC-NH2
modifications: disulfide 1-14
SMILES: CC[C@H](C)[C@@H]1NC(=O)[C@H](C)NC(=O)[C@H](CCC(N)=O)NC(=O)[C@H](CC(C)C)NC(=O)[C@H](CC(N)=O)NC(=O)[C@H](Cc2c[nH]c3ccccc23)NC(=O)[C@@H]2CCCN2C(=O)[C@H](CC(C)C)NC(=O)[C@H](CCCNC(=N)N)NC(=O)[C@@H](NC(C)=O)CSSC[C@@H](C(N)=O)NC(=O)[C@@H]2CCCN2C(=O)[C@H](CC(C)C)NC(=O)CNC1=O
B16: Compound 100 (peptide)
peptide: Ac-CRLPWNLQRIG[dL]PC-NH2
modifications: disulfide 1-14
SMILES: CC[C@H](C)[C@@H]1NC(=O)[C@H](CCCNC(=N)N)NC(=O)[C@H](CCC(N)=O)NC(=O)[C@H](CC(C)C)NC(=O)[C@H](CC(N)=O)NC(=O)[C@H](Cc2c[nH]c3ccccc23)NC(=O)[C@@H]2CCCN2C(=O)[C@H](CC(C)C)NC(=O)[C@H](CCCNC(=N)N)NC(=O)[C@@H](NC(C)=O)CSSC[C@@H](C(N)=O)NC(=O)[C@@H]2CCCN2C(=O)[C@@H](CC(C)C)NC(=O)CNC1=O

target: T1, His-tagged, full-length PCSK9 (human, UniProt A8T644 31-152; Q8NBP7 153-692); assay: TR-FRET competition; competitor EGF(A)-Fc on His-PCSK9
T1 construct: Target protein of the PCSK9/EGF(A) TR-FRET assay (10 nM); also called His-PCSK9; proprotein convertase subtilisin/kexin type 9
T1 sequence (A8T644 31-152 limits assumed, chain 1 of 2): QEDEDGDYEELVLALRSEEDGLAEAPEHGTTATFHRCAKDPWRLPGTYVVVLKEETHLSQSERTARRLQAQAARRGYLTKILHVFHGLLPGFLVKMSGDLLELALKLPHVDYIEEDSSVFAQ
T1 sequence (A8T644 other isoform, or with tags, fused parts or gaps limits assumed, chain 2 of 2): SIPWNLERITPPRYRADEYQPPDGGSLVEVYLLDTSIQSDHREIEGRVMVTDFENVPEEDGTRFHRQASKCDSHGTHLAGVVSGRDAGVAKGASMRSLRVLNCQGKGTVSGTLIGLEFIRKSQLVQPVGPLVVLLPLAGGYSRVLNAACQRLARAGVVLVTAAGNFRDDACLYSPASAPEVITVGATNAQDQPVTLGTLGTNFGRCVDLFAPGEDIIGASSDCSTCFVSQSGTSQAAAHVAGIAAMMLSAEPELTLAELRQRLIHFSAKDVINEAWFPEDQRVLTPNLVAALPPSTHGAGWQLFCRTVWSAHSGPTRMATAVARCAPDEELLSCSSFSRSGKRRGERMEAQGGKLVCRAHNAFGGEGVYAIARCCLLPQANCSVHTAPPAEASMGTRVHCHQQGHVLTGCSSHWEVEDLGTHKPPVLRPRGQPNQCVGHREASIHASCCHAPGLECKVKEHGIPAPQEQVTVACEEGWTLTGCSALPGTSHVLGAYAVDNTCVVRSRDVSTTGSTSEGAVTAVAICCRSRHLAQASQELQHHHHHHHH

IC50, > 50 µM:
B1, B2, B3, B4, B5, B6, B7, B8, B9, B10, B11, B12, B13, B14, B15, B16
